This is an account of results in IntAct's records for PubMed 18772112.

The chains are these.
B1: Catenin beta-1 (Homo sapiens), P35222 (parent)
chain: MATQADLMELDMAMEPDRKAAVSHWQQQSYLDSGIHSGATTTAPSLSGKGNPEEEDVDTSQVLYEWEQGFSQSFTQEQVADIDGQYAMTRAQRVRAAMFPETLDEGMQIPSTQFDAAHPTNVQRLAEPSQMLKHAVVNLINYQDDAELATRAIPELTKLLNDEDQVVVNKAAVMVHQLSKKEASRHAIMRSPQMVSAIVRTMQNTNDVETARCTAGTLHNLSHHREGLLAIFKSGGIPALVKMLGSPVDSVLFYAITTLHNLLLHQEGAKMAVRLAGGLQKMVALLNKTNVKFLAITTDCLQILAYGNQESKLIILASGGPQALVNIMRTYTYEKLLWTTSRVLKVLSVCSSNKPAIVEAGGMQALGLHLTDPSQRLVQNCLWTLRNLSDAATKQEGMEGLLGTLVQLLGSDDINVVTCAAGILSNLTCNNYKNKMMVCQVGGIEALVRTVLRAGDREDITEPAICALRHLTSRHQEAEMAQNAVRLHYGLPVVVKLLHPPSHWPLIKATVGLIRNLALCPANHAPLREQGAIPRLVQLLVRAHQDTQRRTSMGGTQQQFVEGVRMEEIVEGCTGALHILARDVHNRIVIRGLNTIPLFVQLLYSPIENIQRVAAGVLCELAQDKEAAEAIEAEGATAPLTELLHSRNEGVATYAAAVLFRMSEDKPQDYKKRLSVELTSSLFRTEPMAWNETADLGLDIGAQGEPLGYRQDDPSYRSFHSGGYGQDALGMDPMMEHEMGGHHPGADYPVDGLPDLGHAQDLMDGLPPGDSNQLAWFDTDL

In this test the parent is B1. The conditions noted are these: with runx3_human RUNX3, Q13761.
Sequence of runx3_human RUNX3, Q13761 (Q13761 whole entry): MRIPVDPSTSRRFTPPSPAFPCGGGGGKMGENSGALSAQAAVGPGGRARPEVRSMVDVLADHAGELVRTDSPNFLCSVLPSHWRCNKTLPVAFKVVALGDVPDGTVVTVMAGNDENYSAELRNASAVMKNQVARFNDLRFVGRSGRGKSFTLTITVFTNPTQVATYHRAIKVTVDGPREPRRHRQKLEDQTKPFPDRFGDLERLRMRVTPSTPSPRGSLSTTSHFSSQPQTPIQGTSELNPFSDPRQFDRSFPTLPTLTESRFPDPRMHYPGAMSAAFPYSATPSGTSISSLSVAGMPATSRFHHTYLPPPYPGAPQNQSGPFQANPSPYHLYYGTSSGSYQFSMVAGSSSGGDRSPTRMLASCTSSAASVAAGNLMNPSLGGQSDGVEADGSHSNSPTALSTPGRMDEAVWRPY
On to S33Y, for which the “effect of a mutation on the interaction” value was “increasing interaction”.
